Key:
[1] = system: HeLa Kyoto; experiment: solubility in G1/S (NP-40 vs SDS abundance) (log2 ratio); higher = more soluble; conditions: cell cycle stage: G1/S
[2] = system: HeLa Kyoto; experiment: thermal stability score vs G1/S (z-score of summed log2 fold changes over temperatures); higher = more thermally stable than in G1/S
[3] = system: HeLa Kyoto; experiment: solubility change mitosis vs G1/S (difference of NP-40 vs SDS log2 ratios) (log2 ratio difference); higher = more soluble in mitosis
[4] = system: HeLa Kyoto; experiment: melting temperature (median over replicates), in situ; higher = more thermally stable
[5] = cell cycle stage: early G1 (4.5 h after nocodazole release)
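Throughout, for melting temperature (median over replicates), in situ: HeLa Kyoto cells synchronized by double thymidine or nocodazole block, proteins quantified by TMT10plex mass spectrometry, three independent biological replicates.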
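Throughout, for solubility change mitosis vs G1/S (difference of NP-40 vs SDS log2 ratios): synchronized HeLa Kyoto cells (double thymidine block for G1/S, nocodazole release for mitosis), protein amounts in NP-40 versus SDS lysates quantified by mass spectrometry, three biological replicates.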
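Throughout, for solubility in G1/S (NP-40 vs SDS abundance): HeLa Kyoto cells arrested at G1/S by double thymidine block, proteins quantified by TMT10plex mass spectrometry in mild NP-40 versus SDS extracts, three biological replicates.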
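Throughout, for thermal stability score vs G1/S (z-score of summed log2 fold changes over temperatures): synchronized HeLa Kyoto cells, proteins quantified by TMT10plex mass spectrometry, three biological replicates, mitosis taken 0.5 h after nocodazole release, G1/S directly after double thymidine block.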

| Sequence | solubility in G1/S (log2) [1] | thermal stability score [2, 5] | thermal stability score ([2]; cell cycle stage: mitosis) | solubility change mitosis (log2) [3] | melting temperature ([4]; cell cycle stage: G1/S) [°C] | melting temperature ([4]; cell cycle stage: mitosis) [°C] |
| --- | --- | --- | --- | --- | --- | --- |
| MGGLFSRWRTKPSTVEVLESIDKEIQALEEFREKNQRLQKLWVGRLILYSSVLYLFTCLIVYLWYLPDEFTARLAMTLPFFAFPLIIWSIRTVIIFFFSKRTERNNEALDDLKSQRKKILEEVMEKETYKTAKLILERFDPDSKKAKECEPPSAGAAVTARPGQEIRQRTAAQRNLSPTPASPNQGPPPQVPVSPGPPKDSSAPGGPPERTVTPALSSNVLPRHLGSPATSVPGMGLHPPGPPLARPILPRERGALDRIVEYLVGDGPQNRYALICQQCFSHNGMALKEEFEYIAFRCAYCFFLNPARKTRPQAPRLPEFSFEKRQVVEGSSSVGPLPSGSVLSSDNQFNEESLEHDVLDDNTEQTDDKIPATEQTNQVIEKASDSEEPEEKQETENEEASVIETNSTVPGADSIPDPELSGESLTAE | -0.311 | -1.47 | -0.475 | -0.0648 | 55 | 56.9 |
| MGGPRGAGWVAAGLLLGAGACYCIYRLTRGRRRGDRELGIRSSKSAGALEEGTSEGQLCGRSARPQTGGTWESQWSKTSQPEDLTDGSYDDVLNAEQLQKLLYLLESTEDPVIIERALITLGNNAAFSVNQAIIRELGGIPIVANKINHSNQSIKEKALNALNNLSVNVENQIKIKIYISQVCEDVFSGPLNSAVQLAGLTLLTNMTVTNDHQHMLHSYITDLFQVLLTGNGNTKVQVLKLLLNLSENPAMTEGLLRAQVDSSFLSLYDSHVAKEILLRVLTLFQNIKNCLKIEGHLAVQPTFTEGSLFFLLHGEECAQKIRALVDHHDAEVKEKVVTIIPKI [ARMC10] | 0.226 | 0.978 | 1.04 | -0.108 | 50.8 | 49.7 |
| MGGTTSTRRVTFEADENENITVVKGIRLSENVIDRMKESSPSGSKSQRYSGAYGASVSDEELKRRVAEELALEQAKKESEDQKRLKQAKELDRERAAANEQLTRAILRERICSEEERAKAKHLARQLEEKDRVLKKQDAFYKEQLARLEERSSEFYRVTTEQYQKAAEEVEAKFKRYESHPVCADLQAKILQCYRENTHQTLKCSALATQYMHCVNHAKQSMLEKGG [CHCHD3] | 0.229 | -2.54 | -6 | 0.291 | 54.6 | 54.2 |
| MGHRFLRGLLTLLLPPPPLYTRHRMLGPESVPPPKRSRSKLMAPPRIGTHNGTFHCDEALACALLRLLPEYRDAEIVRTRDPEKLASCDIVVDVGGEYDPRRHRYDHHQRSFTETMSSLSPGKPWQTKLSSAGLIYLHFGHKLLAQLLGTSEEDSMVGTLYDKMYENFVEEVDAVDNGISQWAEGEPRYALTTTLSARVARLNPTWNHPDQDTEAGFKRAMDLVQEEFLQRLDFYQHSWLPARALVEEALAQRFQVDPSGEIVELAKGACPWKEHLYHLESGLSPPVAIFFVIYTDQAGQWRIQCVPKEPHSFQSRLPLPEPWRGLRDEALDQVSGIPGCIFVHASGFIGGHRTREGALSMARATLAQRSYLPQIS [C12ORF10] | 0.418 | -0.294 | -1.46 | -0.074 | 53.8 | 53.9 |
| MGILEKISEIEKEIARTQKNKATEYHLGLLKAKLAKYRAQLLEPSKSASSKGEGFDVMKSGDARVALIGFPSVGKSTFLSLMTSTASEAASYEFTTLTCIPGVIEYKGANIQLLDLPGIIEGAAQGKGRGRQVIAVARTADVIIMMLDATKGEVQRSLLEKELESVGIRLNKHKPNIYFKPKKGGGISFNSTVTLTQCSEKLVQLILHEYKIFNAEVLFREDCSPDEFIDVIVGNRVYMPCLYVYNKIDQISMEEVDRLARKPNSVVISCGMKLNLDYLLEMLWEYLALTCIYTKKRGQRPDFTDAIILRKGASVEHVCHRIHRSLASQFKYALVWGTSTKYSPQRVGLTHTMEHEDVIQIVKK [DRG2] | 0.0131 | -0.377 | -0.907 | -0.113 | 51.9 | 51.6 |

Reference: the supplement of paper PMC5998384
